T1: mouse N-cadherin with an uncleaved prodomain expressed on L cells (furin site RQKR replaced with Factor Xa … (mouse, UniProt P15116 160-906))
T1 construct: whole, on cells; Prodomain is still attached in the assay; also called unprocessed N-cadherin; L cell transfectants expressing unprocessed N-cadherin
T1 sequence (looked up): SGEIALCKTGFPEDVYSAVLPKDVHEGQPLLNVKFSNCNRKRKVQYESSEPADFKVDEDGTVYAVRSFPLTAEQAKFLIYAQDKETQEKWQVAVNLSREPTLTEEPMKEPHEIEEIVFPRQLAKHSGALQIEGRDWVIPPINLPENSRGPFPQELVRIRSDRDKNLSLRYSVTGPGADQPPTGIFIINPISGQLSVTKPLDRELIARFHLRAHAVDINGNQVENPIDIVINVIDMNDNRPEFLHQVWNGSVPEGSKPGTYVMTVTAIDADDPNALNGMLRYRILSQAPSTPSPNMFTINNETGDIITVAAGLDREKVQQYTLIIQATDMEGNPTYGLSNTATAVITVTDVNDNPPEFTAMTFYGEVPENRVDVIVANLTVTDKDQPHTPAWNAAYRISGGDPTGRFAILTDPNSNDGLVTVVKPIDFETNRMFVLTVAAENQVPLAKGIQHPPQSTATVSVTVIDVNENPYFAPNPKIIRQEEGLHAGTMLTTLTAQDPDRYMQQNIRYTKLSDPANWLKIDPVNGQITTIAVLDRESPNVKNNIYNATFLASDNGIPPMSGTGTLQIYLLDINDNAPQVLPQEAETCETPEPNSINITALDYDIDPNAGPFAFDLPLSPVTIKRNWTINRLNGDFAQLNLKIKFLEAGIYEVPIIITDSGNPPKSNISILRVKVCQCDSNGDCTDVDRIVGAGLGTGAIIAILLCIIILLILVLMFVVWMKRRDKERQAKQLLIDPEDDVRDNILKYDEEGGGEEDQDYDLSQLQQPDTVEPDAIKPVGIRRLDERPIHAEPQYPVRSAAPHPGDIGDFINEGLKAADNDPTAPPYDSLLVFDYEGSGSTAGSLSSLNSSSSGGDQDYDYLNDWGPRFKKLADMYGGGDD

B1: wild type chicken N-cadherin-Fc fusion protein, dimeric (linked by disulphide bonds at the Ig hinge region) (Fc fusion, UniProt P10288 165-729, looked up)
chain: DWVIPPINLPENSRGPFPQELVRIRSDRDKSLSLRYSVTGPGADQPPTGIFIINPISGQLSVTKPLDREQIASFHLRAHAVDVNGNQVENPIDIVINVIDMNDNRPEFLHQVWNGTVPEGSKPGTYVMTVTAIDADDPNAQNGMLRYRILSQAPSSPSPNMFTINNETGDIITVAAGLDREKVQQYTLIIQATDMEGNPTYGLSNTATAVITVTDVNDNPPEFTAMTFYGEVPENRVDVIVANLTVTDKDQPHTPAWNARYQMTGGDPTGQFTILTDPNSNDGLVTVVKPIDFETNRMFVLTVAAENQVPLAKGIQHPPQSTATVSITVIDVNESPYFVPNPKLVRQEEGLLAGSMLTTFTARDPDRYMQQTSLRYSKLSDPANWLKIDPVNGQITTTAVLDRESIYVQNNMYNATFLASDNGIPPMSGTGTLQIYLLDINDNAPQVNPKEATTCETLQPNAINITAVDPDIDPNAGPFAFELPDSPPSIKRNWTIVRISGDHAQLSLRIRFLEAGIYDVPIVITDSGNPHASSTSVLKVKVCQCDINGDCTDVDRIVGAGLGTG
notes: extracellular domain; also called dimeric N-cadherin-Fc; wild type N-cadherin; not shown: hinge region, CH2 and CH3 domains of human IgG1 heavy chain (vector pIgSig)
B2: chicken N-cadherin-Fc fusion protein with the mutation D134A, dimeric (Fc fusion, UniProt P10288 165-728, looked up)
chain: DWVIPPINLPENSRGPFPQELVRIRSDRDKSLSLRYSVTGPGADQPPTGIFIINPISGQLSVTKPLDREQIASFHLRAHAVDVNGNQVENPIDIVINVIDMNDNRPEFLHQVWNGTVPEGSKPGTYVMTVTAIAADDPNAQNGMLRYRILSQAPSSPSPNMFTINNETGDIITVAAGLDREKVQQYTLIIQATDMEGNPTYGLSNTATAVITVTDVNDNPPEFTAMTFYGEVPENRVDVIVANLTVTDKDQPHTPAWNARYQMTGGDPTGQFTILTDPNSNDGLVTVVKPIDFETNRMFVLTVAAENQVPLAKGIQHPPQSTATVSITVIDVNESPYFVPNPKLVRQEEGLLAGSMLTTFTARDPDRYMQQTSLRYSKLSDPANWLKIDPVNGQITTTAVLDRESIYVQNNMYNATFLASDNGIPPMSGTGTLQIYLLDINDNAPQVNPKEATTCETLQPNAINITAVDPDIDPNAGPFAFELPDSPPSIKRNWTIVRISGDHAQLSLRIRFLEAGIYDVPIVITDSGNPHASSTSVLKVKVCQCDINGDCTDVDRIVGAGLGT
notes: extracellular domain; also called D134A mutant; N-cadherin Fc mutant D134A; not shown: hinge region, CH2 and CH3 domains of human IgG1 heavy chain (vector pIgSig)

Columns and labels:
[1] = molecular target: the molecule itself; assay: bead aggregation assay, 1.25 mM CaCl2
Procedure: Dynabeads (Dynal Biotech) coupled to Protein A were coated with N-cadherin Fc at 1 μg/ml in calcium and magnesium-free HBSS containing 0.1% Tween 20, 1% FCS and 4 mM EDTA. Eppendorf tubes containing beads and fusion protein were rotated slowly for 1 hour at room temperature to allow binding to take place. The beads were then washed in the above assay buffer lacking EDTA and then resuspended in the same buffer supplemented with 1.25 mM CaCl₂. Beads were allowed to aggregate in a volume of 100 μl for 2 hours at 37° C. by slow rotation, in an eppendorf tube, at approximately 20 rpm. Aggregation was then assessed by light microscopy.
In the experiments described so far in this example, disruption of the salt bridge prevented intramolecular docking of Trp 2 in one or both components of the dimer. In an alternative strategy to prevent intramolecular docking, we removed Trp2 by introducing the mutation W2G or blocked the hydrophobic acceptor pocket with an isoleucine side chain projecting into the cavity using the mutation A801. N-cadherin Fc fusion proteins with these mutations were then tested against our panel of K562 transfectants (FIG. 17a). In keeping with the explanation given in FIG. 5, the W2G mutant acted as a strand acceptor and therefore adhered strongly to the E89A mutant whereas the A80I mutant was a strand donor and adhered to the GG extension mutant. […] In contrast, beads coated with the W2G or A801 mutants and tested separately clustered in twos and threes, whereas beads coated with the negative control mutant, D134A, were entirely monodisperse. To test whether all five extracellular domains of N-cadherin (EC1-EC5) are necessary for the strong adhesive interaction between the complementary mutants, we compared the adhesive activity of the W2G mutant prepared as a full length (EC1-EC5) Fc fusion protein with that of the same mutant prepared as a truncated construct containing only cadherin domains EC1 and EC2.

[2] = molecular target: T1, mouse N-cadherin with an uncleaved …; assay: adhesion of L cell transfectants to coated N-cadherin Fc
Procedure: Adhesion tests were conducted substantially as described in Example 1. Briefly, K562 Cells or L cells transfected with wild type or mutant N-cadherin were allowed to settle for 45 minutes at 37° C. onto N-cadherin Fc fusion proteins coated at 1 μg/ml to a 96 well plate. Non-adherent cells were then washed off and residual adherent cells were quantitated by measuring acid phosphatase activity. Assays were conducted in quadruplicate and results are expressed as % cells adhering +/−SEM.
L cells expressing mouse N-cadherin with an uncleaved prodomain (see Koch et al., 2004) were obtained from Dr Weisong Shan (Montreal Neurological Institute). The normal furin cleavage site, RQKR, had been replaced with a Factor Xa site, IEGR, to give the correct N-terminus after digestion. […] L cells suspended in HBSS containing 0.1% BSA were treated with 0.01% trypsin (Sigma, Type XI) in the presence of 2 mM Ca²⁺ for 10 minutes at 37° C. and the digestion was then quenched with soyabean trypsin inhibitor, 0.5 mg per ml (Sigma, Type I-S). Cells were then washed and tested for adhesion to N-cadherin Fc-fusion protein. To check for complete removal of the prodomain, the cells were lysed in SDS sample buffer and the cadherin analysed by SDS PAGE under reducing conditions on a 4-12% gradient gel. […]

Row | Binder | binding result [1] | binding result [2]
1 | B1 | binds | no binding (tested: Fc fusion protein coated at 1 µg/ml)
2 | B2 | no binding (tested: beads coated at 1 µg/ml) | no binding (tested: Fc fusion protein coated at 1 µg/ml)

Source: patent US20080274950A1 (BABRAHAM INSTITUTE, published 2008)
